Experimental data as given in article doi:10.1101/2024.12.23.629660.

Target: Arabidopsis thaliana Fatty Acid Thioesterase A (FatA) (Arabidopsis thaliana) (UniProt Q42561)
Test: crystal structure

stoichiometry N: 2
Substance: Arabidopsis thaliana Fatty Acid Thioesterase A (FatA) (from UniProt Q42561 75-362) (enzyme)
